Changes are numbered by the printed parent chain. Numbers in names are those of the source.
B1: 61BJN (Fab, V domains shown)
VH: EVQLVQSGAEVKKPGASVKVSCKASGYTFTDYDMHWVRQAPGQGLEWMGRIDPQSGDHDYAQKFQGRATLTVDTSTSTAYMELSRLRSDDTAVYYCARYDHGGYFDVWGQGTLVTVSS
VL: DIQMTQSPSSLSASVGDRVTITCRASQDIYNYLNWYQQKPGKAVKLLIYYTSRLHSGVPSRFSGSGSGTDYTLTISSLQPEDFATYFCQQGDTLPWTFGQGTKLEIKR
notes: also called VH S31D W33D G57D I58H K59D W99Y Y101H / VL T30Y (61BJN)
B2: 72BJN (Fab, V domains shown)
VH: B1 VH with D31Q, D57G, H58I, D59K, H101Y
VL: B1 VL with R53I
notes: also called VH S31Q W33D W99Y / VL T30Y R53I (72BJN)
B3: 63BJN (Fab, V domains shown)
VH: B1 VH with D31F, M34I, D57G, H58I, D59K, Y99W, H101Y
VL: B1 VL
notes: also called VH S31F W33D M34I / VL T30Y (63BJN)
B4: 71BJN (Fab, V domains shown)
VH: B1 VH with D31S, S55T, H58I, D59K, Y99W, H101Y, Y104Q
VL: B1 VL with R53G
notes: also called VH W33D S55T G57D Y104Q / VL T30Y R53G (71BJN)
B5: 74BJN (Fab, V domains shown)
VH: B1 VH with D31Y, M34L, D57G, H58I, D59K, Y99W, H101Y
VL: B1 VL with T93D, L94I
notes: also called VH S31Y W33D M34L / VL T30Y T93D L94I (74BJN)
B6: 73BJN (Fab, V domains shown)
VH: B1 VH with D31S, D57G, H58I, D59K, Y99W, H101Y
VL: B1 VL
notes: also called VH W33D / VL T30Y (73BJN)
B7: 79BJN (Fab, V domains shown)
VH: B1 VH with D31S, S55D, H58V, D59K, Y99W, H101Y
VL: B1 VL with R53G, T93E
notes: also called VH W33D S55D S57D I58V / VL T30Y R53G T93E (79BJN)
B8: 78BJN (Fab, V domains shown)
VH: B1 VH with D31S, D57G, H58I, D59R, Y99W, H101Y
VL: B1 VL with R53N, T93E
notes: also called VH W33D K59R / VL T30Y R53N T93E (78BJN)
B9: 75BJN (Fab, V domains shown)
VH: B1 VH with D31K, S55D, D57G, H58F, D59K, Y99W, H101Y
VL: B1 VL with Y30F, R53Y, T93E
notes: Label says VL T30Y but the printed LCDR1 reads F at 30; also called VH S31K W33D S55D I58F / VL T30Y R53Y T93E (75BJN)
B10: 65BJN (Fab, V domains shown)
VH: B1 VH with D31S, M34L, D57G, H58I, D59K, H101Q
VL: B1 VL with N31Y
notes: also called VH W33D M34L W99Y Y101Q / VL T30Y N31Y (65BJN)
B11: 62BJN (Fab, V domains shown)
VH: B1 VH with D31S, Q54Y, S55G, D57G, H58I, D59K
VL: B1 VL
notes: also called VH W33D Q54Y S55G W99Y Y101H / VL T30Y (62BJN)
B12: 68BJN (Fab, V domains shown)
VH: B1 VH with D31S, D33W, H35Q, S55D, H58I, D59K, H101Y
VL: B1 VL with R53V
notes: also called VH H35Q S55D S57D W99Y / VL T30Y R53V (68BJN)
B13: 66BJN (Fab, V domains shown)
VH: B1 VH with D31S, S55T, D57G, H58I, D59K, Y99W
VL: B1 VL with L94Q
notes: also called VH W33D S55T Y101H / VL T30Y L94Q (66BJN)
B14: 76BJN (Fab, V domains shown)
VH: B1 VH with D31Y, Q54Y, S55D, H58I, D59K, Y99W, H101Y
VL: B1 VL with R53L, T93E
notes: also called VH S31Y W33D Q54Y S55D G57D / VL T30Y R53L T93E (76BJN)
B15: 77BJN (Fab, V domains shown)
VH: B1 VH with D31S, D57G, H58V, D59K, Y99W, H101Y
VL: B1 VL with R53V, T93E
notes: also called VH W33D I58V / VL T30Y R53V T93E (77BJN)
B16: 67BJN (Fab, V domains shown)
VH: B1 VH with D31S, D57G, H58I, D59K, Y99W, H101Y
VL: B1 VL with R53V
notes: also called VH W33D / VL T30Y R53V (67BJN)
B17: 80BJN (Fab, V domains shown)
VH: B1 VH with D31S, D57G, H58I, D59R, Y99W, H101Y, Y104Q
VL: B1 VL with R53I
notes: also called VH W33D K59R Y104Q / VL T30Y R53I (80BJN)
B18: 64BJN (Fab, V domains shown)
VH: B1 VH with D31T, D33W, D57G, H58S, D59K, Y99W, H101Y
VL: B1 VL with R53H
notes: also called VH S31T I58S / VL T30Y R53H (64BJN)

What follows are binders tested against T1, human LAP-TGFB1 Fc fusion (human) (assay: SPR, antigen-Fc captured, Fab analyte).
T1 construct: also called human LAP-TGFβ1-Fc; human LAP-TGFβ-Fc isoform 1
T1 sequence (chain, as listed by the source limits assumed): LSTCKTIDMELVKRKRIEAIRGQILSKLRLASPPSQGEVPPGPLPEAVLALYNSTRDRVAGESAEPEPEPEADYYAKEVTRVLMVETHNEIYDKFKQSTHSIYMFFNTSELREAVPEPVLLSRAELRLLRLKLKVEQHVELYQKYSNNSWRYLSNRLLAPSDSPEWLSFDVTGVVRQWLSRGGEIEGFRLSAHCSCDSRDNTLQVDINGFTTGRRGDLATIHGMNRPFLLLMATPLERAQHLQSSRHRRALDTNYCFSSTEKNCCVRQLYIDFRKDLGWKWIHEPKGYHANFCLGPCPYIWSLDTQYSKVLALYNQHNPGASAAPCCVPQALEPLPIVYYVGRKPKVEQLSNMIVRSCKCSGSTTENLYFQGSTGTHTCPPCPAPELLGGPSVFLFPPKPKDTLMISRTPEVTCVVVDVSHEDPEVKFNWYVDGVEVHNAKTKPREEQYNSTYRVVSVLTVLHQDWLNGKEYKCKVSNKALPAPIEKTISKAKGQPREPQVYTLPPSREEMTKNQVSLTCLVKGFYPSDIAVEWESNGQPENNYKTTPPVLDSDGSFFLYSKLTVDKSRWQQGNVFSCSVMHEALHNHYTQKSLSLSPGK
Description: (§1) This Example describes the isoform specificity of the yeast display mutants to bind to human LAP-TGFβ isoforms 1, 2, and 3 using surface plasmon resonance. A Series S CM4 sensor chip (GE Healthcare, catalog BR100534) was immobilized with an anti-human Fc capture antibody following the kit protocol (GE Healthcare, catalog BR100839) on a Biacore T200 instrument with 1× HBS-EP+ (Teknova, catalog H8022). […] Binding specificity experiments between human LAP-TGFβ isoforms 2 and 3 and yeast display mutants were performed in 1× HBS-EP+ with 0.1 mg/mL BSA at 25° C. Approximately 20-40 RU amounts of human LAP-TGFβ2 and 3 were captured to the anti-human Fc surface followed by injection of 1000 nM Fab including a negative control 0 nM Fab. The binding data were double referenced by subtraction of signal from a reference (capture surface only) flow cell and the negative control 0 nM Fab injection. Binding rate constants were determined by fitting the data with a 1:1 binding model (GE Healthcare Biacore T200 Evaluation software 3.0).

Row | Binder | Fold improvement in KD [fold] | Kd [nM] | koff [s⁻¹] | kon [M⁻¹ s⁻¹]
1 | B1 | 1 | 175 | 0.279 | 1.59e+06
2 | B2 | 130 | 0.615 | 0.00298 | 4.85e+06
3 | B3 | 25 | 3.23 | 0.0053 | 1.64e+06
4 | B4 | 3200 | 0.0251 | 6.8e-05 | 2.71e+06
5 | B5 | 196 | 0.408 | 0.00181 | 4.45e+06
6 | B6 | 133 | 0.601 | 0.0031 | 5.15e+06
7 | B7 | 3630 | 0.022 | 0.000128 | 5.84e+06
8 | B8 | 1120 | 0.0713 | 0.000393 | 5.52e+06
9 | B9 | 1180 |  |  | 
10 | B10 | 10 | 8.12 | 0.0238 | 2.94e+06
11 | B11 | 5 | 15.6 | 0.032 | 2.05e+06
12 | B12 | 4200 | 0.0191 | 8.34e-05 | 4.36e+06
13 | B13 | 13 | 6.21 | 0.0131 | 2.11e+06
14 | B14 | 768 | 0.104 | 0.000186 | 1.8e+06
15 | B15 | 1540 | 0.0517 | 0.00027 | 5.22e+06
16 | B16 | 512 | 0.156 | 0.000762 | 4.87e+06
17 | B17 | 13200 | 0.00607 | 2.52e-05 | 4.15e+06
18 | B18 | 37 | 2.15 | 0.0077 | 3.57e+06

Each binder was assayed against T2, human LAP-TGFB3 Fc fusion (human) (assay: SPR).
T2 construct: also called human LAP-TGFβ3; LAP-TGFβ isoform 3
T2 sequence (chain, as listed by the source limits assumed): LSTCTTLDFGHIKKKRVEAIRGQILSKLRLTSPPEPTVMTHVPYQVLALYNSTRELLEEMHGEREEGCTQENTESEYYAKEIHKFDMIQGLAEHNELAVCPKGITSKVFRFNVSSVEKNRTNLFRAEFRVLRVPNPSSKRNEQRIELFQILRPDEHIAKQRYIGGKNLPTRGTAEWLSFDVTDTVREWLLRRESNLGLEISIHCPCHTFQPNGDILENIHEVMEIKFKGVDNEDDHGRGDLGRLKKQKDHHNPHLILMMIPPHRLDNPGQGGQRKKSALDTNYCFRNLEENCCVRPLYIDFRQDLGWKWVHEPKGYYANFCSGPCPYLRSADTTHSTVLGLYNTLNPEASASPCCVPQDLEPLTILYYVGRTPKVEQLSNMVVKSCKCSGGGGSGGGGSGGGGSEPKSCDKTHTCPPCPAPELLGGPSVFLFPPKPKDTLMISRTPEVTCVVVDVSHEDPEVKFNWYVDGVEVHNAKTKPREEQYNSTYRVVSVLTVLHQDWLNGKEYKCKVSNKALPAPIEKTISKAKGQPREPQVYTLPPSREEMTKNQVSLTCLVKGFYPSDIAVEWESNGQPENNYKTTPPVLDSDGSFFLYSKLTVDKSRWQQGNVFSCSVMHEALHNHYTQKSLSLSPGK
Description: as §1

Row | Binder | binding result
19 | B1 | no binding (tested: 1000 nM Fab)
20 | B2 | no binding (tested: 1000 nM Fab)
21 | B3 | no binding (tested: 1000 nM Fab)
22 | B4 | no binding (tested: 1000 nM Fab)
23 | B5 | no binding (tested: 1000 nM Fab)
24 | B6 | no binding (tested: 1000 nM Fab)
25 | B7 | no binding (tested: 1000 nM Fab)
26 | B8 | no binding (tested: 1000 nM Fab)
27 | B9 | no binding (tested: 1000 nM Fab)
28 | B10 | no binding (tested: 1000 nM Fab)
29 | B11 | no binding (tested: 1000 nM Fab)
30 | B12 | no binding (tested: 1000 nM Fab)
31 | B13 | no binding (tested: 1000 nM Fab)
32 | B14 | no binding (tested: 1000 nM Fab)
33 | B15 | no binding (tested: 1000 nM Fab)
34 | B16 | no binding (tested: 1000 nM Fab)
35 | B17 | no binding (tested: 1000 nM Fab)
36 | B18 | no binding (tested: 1000 nM Fab)

What follows are binders tested against T3, human LAP-TGFB2 Fc fusion (human) (assay: SPR).
T3 construct: also called human LAP-TGFβ2; LAP-TGFβ isoform 2
T3 sequence (chain, as listed by the source limits assumed): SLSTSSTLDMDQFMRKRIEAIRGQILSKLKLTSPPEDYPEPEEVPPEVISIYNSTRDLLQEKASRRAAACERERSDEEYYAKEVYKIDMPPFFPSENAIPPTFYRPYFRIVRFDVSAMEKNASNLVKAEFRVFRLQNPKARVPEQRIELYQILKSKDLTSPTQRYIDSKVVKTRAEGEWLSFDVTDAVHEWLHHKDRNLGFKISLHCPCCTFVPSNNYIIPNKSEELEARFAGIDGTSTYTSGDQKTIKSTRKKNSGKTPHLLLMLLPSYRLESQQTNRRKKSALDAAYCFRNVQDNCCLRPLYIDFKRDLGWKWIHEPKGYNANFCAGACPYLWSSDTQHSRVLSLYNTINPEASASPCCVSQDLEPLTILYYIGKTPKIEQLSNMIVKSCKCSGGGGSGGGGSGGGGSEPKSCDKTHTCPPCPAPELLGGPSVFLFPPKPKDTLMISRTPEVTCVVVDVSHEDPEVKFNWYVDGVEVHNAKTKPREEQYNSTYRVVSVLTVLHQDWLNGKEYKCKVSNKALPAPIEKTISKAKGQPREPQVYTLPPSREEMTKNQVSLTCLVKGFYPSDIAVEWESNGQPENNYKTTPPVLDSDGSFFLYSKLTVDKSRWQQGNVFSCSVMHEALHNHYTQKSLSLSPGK
Description: as §1

Row | Binder | binding result
37 | B1 | no binding (tested: 1000 nM Fab)
38 | B2 | no binding (tested: 1000 nM Fab)
39 | B3 | no binding (tested: 1000 nM Fab)
40 | B4 | no binding (tested: 1000 nM Fab)
41 | B5 | no binding (tested: 1000 nM Fab)
42 | B6 | no binding (tested: 1000 nM Fab)
43 | B7 | no binding (tested: 1000 nM Fab)
44 | B8 | no binding (tested: 1000 nM Fab)
45 | B9 | no binding (tested: 1000 nM Fab)
46 | B10 | no binding (tested: 1000 nM Fab)
47 | B11 | no binding (tested: 1000 nM Fab)
48 | B12 | no binding (tested: 1000 nM Fab)
49 | B13 | no binding (tested: 1000 nM Fab)
50 | B14 | no binding (tested: 1000 nM Fab)
51 | B15 | no binding (tested: 1000 nM Fab)
52 | B16 | no binding (tested: 1000 nM Fab)
53 | B17 | no binding (tested: 1000 nM Fab)
54 | B18 | no binding (tested: 1000 nM Fab)
